{
  "source": "patent US8987424B2",
  "about": "“CA6 antigen-specific cytotoxic conjugate and methods of using the same” (ImmunoGen, Inc., priority 2003, dated 2015)",
  "molecules": {"B1": {"name": "DS6-DM1: muDS6 antibody modified with SPP and conjugated to the maytansinoid DM1 (conjugate)", "VH": "QAYLQQSGAELVRSGASVKMSCKASGYTFTSYNMHWVKQTPGQGLEWIGYIYPGNGATNYNQKFKGKATLTADPSSSTAYMQISSLTSEDSAVYFCARGDSVPFAYWGQGTLVTVSA", "VL": "QIVLTQSPAIMSASPGEKVTITCSAHSSVSFMHWFQQKPGTSPKLWIYSTSSLASGVPARFGGSGSGTSYSLTISRMEAEDAATYYCQQRSSFPLTFGAGTKLELKR"}, "B2": {"name": "DS6: murine anti-CA6 monoclonal antibody DS6 (ATCC deposit number PTA-4449) (antibody, V domains shown)", "VH": "QAYLQQSGAELVRSGASVKMSCKASGYTFTSYNMHWVKQTPGQGLEWIGYIYPGNGATNYNQKFKGKATLTADPSSSTAYMQISSLTSEDSAVYFCARGDSVPFAYWGQGTLVTVSA", "VL": "QIVLTQSPAIMSASPGEKVTITCSAHSSVSFMHWFQQKPGTSPKLWIYSTSSLASGVPARFGGSGSGTSYSLTISRMEAEDAATYYCQQRSSFPLTFGAGTKLELKR"}},
  "key": {"TOV-21G tumor xenografts": {"test_system": "TOV-21G tumor xenografts", "assay": "Subcutaneous TOV-21G xenograft efficacy study", "type": "in vivo, SCID mice", "method": "OVCAR5 (FIG. 26A and FIG. 26B), TOV-21 G (FIG. 26C and FIG. 26D), HPAC (FIG. 26E and FIG. 26F), and HeLa (FIG. 26G and FIG. 26H) cells were inoculated on day 0, and immunoconjugate treatments were given on day 6 and 13. PBS control animals were euthanized once tumor volumes exceeded 1000 mm^3. The conjugate was given at a dose of 600 μg/kg DM1, corresponding to an antibody concentration 27.7 mg/kg. Tumor volume (FIG. 26A, FIG. 26C, FIG. 26E, and FIG. 26G) and body weight (FIG. 26B, FIG. 26D, FIG. 26F, and FIG. 26H) of the mice were monitored during the course of the study.\nmuDS6-DM 1 activity was further tested on a panel of subcutaneous xenograft models (see FIG. 26). […] OVCAR5 cells and TOV-21 G are ovarian tumor cell lines; HPAC is a pancreatic tumor cell line; HeLa is a cervical tumor cell line. OVCAR5 and TOV-21G cells have low surface CA6 expression; HeLa cells have an intermediate level of surface CA6 expression; HPAC cells have a high CA6 density of surface expression. TOV-21G and HPAC cells are maytansine sensitive; OVCAR5 and HeLa cells are 2-7-fold less maytansine sensitive.\nThe 4 cell-lines were grown in vitro, collected, and 1×10^7 cells in a 100 μL of serum free medium were injected under the right shoulder of each mouse (6 mice per model) and allowed to grow for 6 days to an average tumor volume of 57.6±6.7 and 90.2±13.4 mm^3 for the test and control groups respectively of OVCAR5, 147.1±29.6 and 176.2±18.9 mm^3 for the test and control groups respectively of HPAC, 194.3±37.2 and 201.7±71.7 mm^3 for the test and control groups respectively of HeLa, and 96.6±22.8 and 155.6±13.4 mm^3 for the test and control groups respectively of TOV-21G, at which time drug treatment was initiated. For each model three control mice were treated with two weekly doses of PBS and three test mice were treated with two weekly doses of conjugate (600 μg/kg DM1) intravenously. Toxic responses were monitored daily during the treatment and tumor volumes and body weights were monitored throughout the study. […]"}, "KB tumor xenografts": {"test_system": "KB tumor xenografts", "assay": "Subcutaneous KB tumor xenograft efficacy study", "type": "in vivo, SCID mice", "method": "Tumor cells were inoculated on day 0, and the first treatment was given on day 6. Immunoconjugate treatments continued daily for a total of 5 doses. PBS control animals were euthanized once tumor volumes exceeded 1500 mm^3. The conjugate was given at a dose of 150 or 225 μg/kg DM1, corresponding to antibody concentrations of 5.7 and 8.5 mg/kg respectively. The body weights (FIG. 25B) of the mice were monitored during the course of the study.\nA subcutaneous model of the human cervical carcinoma cell-line, KB, was developed. KB cells were grown in vitro, collected, and 5×10^6 cells in a 100 μL of serum free medium were injected under the right shoulder of each mouse and allowed to grow for 6 days to an average tumor volume of 144±125 mm^3 at which time drug treatment was initiated. Mice were given either PBS, conjugate at 150 μg/kg DM1, or conjugate at 225 μg/kg DM1 (2 mice per group) intravenously every day for 5 days. Toxic responses were monitored daily during the treatment. Tumor volumes (FIG. 25A) and corresponding body weights (FIG. 25B) were monitored throughout the study."}, "HPAC cells": {"test_system": "HPAC cells", "assay": "Complement-dependent cytotoxicity (CDC) assay", "type": "cell-based", "details": "5% human or rabbit serum", "method": "(§1) To further test the inherent activity of naked muDS6, a complement-dependent cytotoxicity (CDC) assay using muDS6 was conducted. HPAC and ZR-75-1 cells (25000 cells/well) were plated in 96 well plates, in the presence of 5% human or rabbit serum and various dilutions of muDS6, in 200 μl of RHBP media (RPMI-1640, 0.1% BSA, 20 mM HEPES (pH 7.2-7.4), 100 U/ml penicillin and 100 ug/ml streptomycin). The cells were incubated for 2 h at 37° C. Then Alamar Blue (10% of final concentration) reagent (Biosource) was added to the supernatant. The cells were incubated for 5-24 hrs before measuring fluorescence."}, "ZR-75-1 cells": {"test_system": "ZR-75-1 cells", "assay": "Complement-dependent cytotoxicity (CDC) assay", "type": "cell-based", "details": "5% human or rabbit serum", "method": "as §1"}, "Caov-3 cells": {"test_system": "Caov-3 cells", "assay": "Indirect cell viability assay with anti-mouse IgG (H+L) DM1 conjugate", "type": "cell-based, human", "details": "without secondary conjugate"}, "[1]": {"details": "600 μg/kg DM1, two weekly doses"}, "[2]": {"details": "150 μg/kg DM1 i.v. daily for 5 days"}},
  "data": [
    {"molecule": "B1", "values": [
      {"measurement": "body weight", "setting": "TOV-21G tumor xenografts; [1]", "result": "no weight loss was observed"},
      {"measurement": "tumor status at day 61", "setting": "TOV-21G tumor xenografts; [1]", "result": "tumor-free"},
      {"measurement": "tumor regression", "setting": "TOV-21G tumor xenografts; 600 μg/kg DM1 i.v., two weekly doses", "result": "complete tumor regression in all mice"},
      {"measurement": "body weight", "setting": "KB tumor xenografts; 150 μg/kg DM1", "result": "no weight loss"},
      {"measurement": "time to complete tumor regression after treatment initiation", "setting": "KB tumor xenografts; [2]", "result": 18, "unit": "days"},
      {"measurement": "tumor delay", "setting": "KB tumor xenografts; [2]", "result": "approximately 70 days"},
      {"measurement": "treatment outcome", "setting": "KB tumor xenografts; 225 μg/kg DM1, no tumor recurrence at day 120", "result": "cures"},
      {"measurement": "time to complete tumor regression after treatment initiation", "setting": "KB tumor xenografts; 225 μg/kg DM1 i.v. daily for 5 days", "result": 14, "unit": "days"},
      {"measurement": "visible signs of toxicity", "setting": "KB tumor xenografts; during the 5-day treatment course, 150 and 225 μg/kg DM1", "result": "no visible signs of toxicity"}
    ]},
    {"molecule": "B2", "values": [
      {"measurement": "CDC mediated effect", "setting": "HPAC cells; listed as Murine DS6", "result": "no effect"},
      {"measurement": "CDC mediated effect", "setting": "HPAC cells; listed as muDS6", "result": "no CDC mediated effect"},
      {"measurement": "CDC mediated effect", "setting": "ZR-75-1 cells; listed as Murine DS6", "result": "no effect"},
      {"measurement": "CDC mediated effect", "setting": "ZR-75-1 cells; listed as muDS6", "result": "no CDC mediated effect"},
      {"measurement": "activity of naked antibody in cell cultures", "setting": "Caov-3 cells", "result": "no proliferative or growth inhibitive activity"}
    ]}
  ]
}
